This note sets out measurements from patent US20250002610A1 (Genmab, published 2025).

For test [1], the target named is T1, human DR4 (Death Receptor 4), cell surface expressed on human tumor cell lines (human, UniProt O00220 24-468).
T1 construct: also called TNFRSF10A; TRAIL-R1
T1 sequence: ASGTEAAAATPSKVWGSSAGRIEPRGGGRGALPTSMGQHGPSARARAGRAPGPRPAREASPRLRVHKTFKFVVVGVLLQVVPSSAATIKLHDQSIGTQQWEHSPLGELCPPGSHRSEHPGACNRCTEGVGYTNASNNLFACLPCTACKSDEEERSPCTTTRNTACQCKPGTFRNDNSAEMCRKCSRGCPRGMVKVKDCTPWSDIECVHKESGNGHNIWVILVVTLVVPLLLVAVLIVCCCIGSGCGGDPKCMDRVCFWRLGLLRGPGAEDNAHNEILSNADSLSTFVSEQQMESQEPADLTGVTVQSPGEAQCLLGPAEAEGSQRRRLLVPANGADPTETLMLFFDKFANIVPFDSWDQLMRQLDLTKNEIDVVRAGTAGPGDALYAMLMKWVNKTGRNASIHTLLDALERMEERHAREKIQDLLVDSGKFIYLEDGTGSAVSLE
In words: flow cytometry, MDA-MB-231 cells, N = 1.

In test [2] the target is T1, human DR4 (Death Receptor 4), cell …. Put plainly: flow cytometry, MDA-MB-231 cells, N = 2. For orientation: A flow cytometer gives signals particle by particle.
Test [3] has the same target. Put plainly: flow cytometry, MDA-MB-231 cells, average ± SEM.
The target is the same in test [4]. In words: flow cytometry on OPM-2 cells (endogenous DR4), gMFI PE. As to the method: Immunol. […] Human lung fibroblasts and CAFs (50,000 cells/well) were seeded in 96-Well round bottom plates (Greiner Bio-one, Cat #650101). Antibody dilutions were prepared using fluorescence-activated cell sorting (FACS) buffer, consisting of phosphate buffer saline (PBS, Lonza, Cat #BE17-517Q)+1% Bovine Serum Albumin (BSA, Roche, Cat #10735086001)+0.02% Sodium Azide (Bio-World, Cat #41920044-3). Plates were centrifuged, supernatant was removed, cells were resuspended in 50 μL of human Fc Block (BD, Cat #564220, diluted 1:100 in FACS buffer) and 50 μL of viability stain TO-PRO-3 Iodide (Thermo Fisher, Cat #T3605, diluted 1: 25,000 in FACS buffer), and incubated for 15 min at 4° C. Plates were washed three times with FACS buffer. […] Antibody binding to viable cells (TO-PRO-3 negative) was analyzed by flow cytometry on a FACSCelesta™ (BD biosciences) and data were processed using FlowJo_v10.8.1 (FlowJo LLC). Geomean fluorescence intensity, gMFI, was determined and visualized using GraphPad Prism. Binding curves were analyzed using nonlinear regression analysis. […]
Binding of DR4-specific antibodies BisG1-b12-FEAL/DR4-T1014A04-FEAR, BisG1-b12-FEAL/DR4-chCTB007-FEAR, IgG1-DR4-chCTB007-FEAR and IgG1-DR4-T1014A04-FEAR to cell surface expressed human DR4 was analyzed by flow cytometry using the human cancer cell line OPM-2 (DSMZ, Cat #ACC 50), which endogenously expresses DR4.

Test [5] shares this target. Put plainly: flow cytometry, MDA-MB-231 cells, N = 1; MDA-MB-231 cells, up to 90 µg/mL, N = 1.
The target is the same in test [6]. In words: flow cytometry, MDA-MB-231 cells, N = 2; MDA-MB-231 cells, up to 90 µg/mL, N = 2.
Test [7] shares this target. Put plainly: flow cytometry, MDA-MB-231 cells, average ± SEM; MDA-MB-231 cells, up to 90 µg/mL, average of N = 2.

B1: IgG1-DR4-chCTB007-FEAR (antibody, V domains shown)
VH: EVQLQQSGAELVKPGASVKLSCTASGFNIKDTYMHWVKQRPEQGLEWIGRIDPANGNTKYDPKFQGKATITADTSSNTAYLQLSSLTSEDTAVYYCAYYYVSNAWFTYWGQGTLVTVSA
VL: DIQMTQSPASLSVSVGETVTITCRASENIYSNLEWYQQKQGKSPQLLVYAATNLADGVPSRFSGSGSGTQYSLKINSLQSEDFGSYYCQHFWGTWTFGGGTKLEIKR
notes: Prior art DR4 clone (US20090136503A1)
One may read the EC50 as the midpoint of the concentration-response curve. A higher EC50 goes with a less potent agent. Broadly, the EC50 (read off the curve) is the concentration that produces a half-maximal response. For B1, the EC50 turned out to be 0.04 µg/mL in test [1], 0.08 µg/mL in test [2] and 0.06 µg/mL in test [3]. Besides, the “Max MFI (at 90 µg/mL)” value was determined as 3750 MFI in test [1], 3480 MFI in test [2] and 3620 MFI in test [3]. Also, the “EC50 (read off the curve)” value in test [4] is ~0.05 µg/mL.

B2: BisG1-b12-FEAL/DR4-T1014A04-FEAR (bispecific antibody, human IgG1, kappa, lambda)
heavy 1: QVQLVQSGAEVKKPGASVKVSCQASGYRFSNFVIHWVRQAPGQRFEWMGWINPYNGNKEFSAKFQDRVTFTADTSANTAYMELRSLRSADTAVYYCARVGPYSWDDSPQDNYYMDVWGKGTTVIVSSASTKGPSVFPLAPSSKSTSGGTAALGCLVKDYFPEPVTVSWNSGALTSGVHTFPAVLQSSGLYSLSSVVTVPSSSLGTQTYICNVNHKPSNTKVDKRVEPKSCDKTHTCPPCPAPEFEGGPSVFLFPPKPKDTLMISRTPEVTCVVVAVSHEDPEVKFNWYVDGVEVHNAKTKPREEQYNSTYRVVSVLTVLHQDWLNGKEYKCKVSNKALPAPIEKTISKAKGQPREPQVYTLPPSREEMTKNQVSLTCLVKGFYPSDIAVEWESNGQPENNYKTTPPVLDSDGSFLLYSKLTVDKSRWQQGNVFSCSVMHEALHNHYTQKSLSLSPG
light 1: EIVLTQSPGTLSLSPGERATFSCRSSHSIRSRRVAWYQHKPGQAPRLVIHGVSNRASGISDRFSGSGSGTDFTLTITRVEPEDFALYYCQVYGASSYTFGQGTKLERKRTVAAPSVFIFPPSDEQLKSGTASVVCLLNNFYPREAKVQWKVDNALQSGNSQESVTEQDSKDSTYSLSSTLTLSKADYEKHKVYACEVTHQGLSSPVTKSFNRGEC
heavy 2: EVQLVQSGADVKRPGASVKVSCKISGDSFNAYFIHWVRQAPGQGLEWMGWFNPDSGTADSAQKFHGRVTMTRDTSSSTAFLELSRLRSDDTAVYYCVRQHRGNTFAPWGRGTMVTVSSASTKGPSVFPLAPSSKSTSGGTAALGCLVKDYFPEPVTVSWNSGALTSGVHTFPAVLQSSGLYSLSSVVTVPSSSLGTQTYICNVNHKPSNTKVDKRVEPKSCDKTHTCPPCPAPEFEGGPSVFLFPPKPKDTLMISRTPEVTCVVVAVSHEDPEVKFNWYVDGVEVHNAKTKPREEQYNSTYRVVSVLTVLHQDWLNGKEYKCKVSNKALPAPIEKTISKAKGQPREPQVYTLPPSREEMTKNQVSLTCLVKGFYPSDIAVEWESNGQPENNYKTTPPVLDSDGSFFLYSRLTVDKSRWQQGNVFSCSVMHEALHNHYTQKSLSLSPG
light 2: QSVLTQPPSASGSPGQSVTISCTGTTSDVGGYNYVSWYQQHPGKAPKLMIYGVNQRPSGVPDRFSGSKSGNTASLTVSGLQAEDEADYYCSSYAGSNNWVFGGGTKLTVLGQPKAAPSVTLFPPSSEELQANKATLVCLISDFYPGAVTVAWKADSSPVKAGVETTTPSKQSNNKYAASSYLSLTPEQWKSHRSYSCQVTHEGSTVEKTVAPTECS
notes: Fab-arm exchange of IgG1-b12-FEAL and IgG1-DR4-T1014A04-FEAR
For the molecule B2, the EC50 in test [5] was 4.33 µg/mL; in test [6], 6.36 µg/mL; in test [7], 5.35 µg/mL.
